The values that follow come from paper doi:10.1101/2021.08.28.458030.

This assay concerns the target T1, Human fumarase (human), P07954.
T1 chain: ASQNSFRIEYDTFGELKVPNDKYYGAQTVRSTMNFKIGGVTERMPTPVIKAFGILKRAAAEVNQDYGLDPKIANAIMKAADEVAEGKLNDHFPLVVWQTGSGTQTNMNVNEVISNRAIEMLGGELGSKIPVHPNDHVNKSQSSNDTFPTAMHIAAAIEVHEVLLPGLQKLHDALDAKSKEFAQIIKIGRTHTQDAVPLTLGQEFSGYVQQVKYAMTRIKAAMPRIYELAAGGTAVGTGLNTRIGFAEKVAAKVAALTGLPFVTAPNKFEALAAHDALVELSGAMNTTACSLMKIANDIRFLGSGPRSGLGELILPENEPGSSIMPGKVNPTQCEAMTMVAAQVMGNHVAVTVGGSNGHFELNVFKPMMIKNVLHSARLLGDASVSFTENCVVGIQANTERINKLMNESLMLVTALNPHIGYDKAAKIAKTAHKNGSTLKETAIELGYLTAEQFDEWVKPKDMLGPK
The assay can be described thus: crystal structure. Particulars: remark: other sources report otherwise.

As usually defined, the stoichiometry N is the number of molecules, sites or subunits per partner or assembly.

B1: Human fumarase, P07954 45-510 (enzyme)
chain: ASQNSFRIEYDTFGELKVPNDKYYGAQTVRSTMNFKIGGVTERMPTPVIKAFGILKRAAAEVNQDYGLDPKIANAIMKAADEVAEGKLNDHFPLVVWQTGSGTQTNMNVNEVISNRAIEMLGGELGSKIPVHPNDHVNKSQSSNDTFPTAMHIAAAIEVHEVLLPGLQKLHDALDAKSKEFAQIIKIGRTHTQDAVPLTLGQEFSGYVQQVKYAMTRIKAAMPRIYELAAGGTAVGTGLNTRIGFAEKVAAKVAALTGLPFVTAPNKFEALAAHDALVELSGAMNTTACSLMKIANDIRFLGSGPRSGLGELILPENEPGSSIMPGKVNPTQCEAMTMVAAQVMGNHVAVTVGGSNGHFELNVFKPMMIKNVLHSARLLGDASVSFTENCVVGIQANTERINKLMNESLMLVTALNPHIGYDKAAKIAKTAHKNGSTLKETAIELGYLTAEQFDEWVKPKDMLGPK
Consider B1, for which the stoichiometry N amounted to 4.
